Test results published in patent US9040054B2.

Target: serum IgE of birch pollen allergic (Bet v 1 allergic) patients
Experiment: ELISA inhibition: BM4 as inhibitor in serial dilutions, Bet v 1a immobilized at 200 ng/well, 5 sera

B1: BM4 (protein)
chain: GVFNYETETTSVIPAARLFKAFILDGDNLFPKVAPQAISSVENIEGNGGPGTIKKISFPEGFPFKYVKDRVDEVDHTNFKYNYSVIEGGPIGDTLEKISNEIKIVATPSGSTIKSISNKYHTKGDHEVKAEQVKASKEMGETLLRAVESYLLAHSDAYN
fold reduced patients' IgE binding capacity compared to Bet v 1a: 100 to 1000 fold
